± gives the standard deviation of the averaged measurements.

The data set has as its system Saccharomyces cerevisiae. The data set is described as follows: protein stability index of tFT-peptide fusion (C-terminal peptide) (PSI (0-1 scale)); higher = more stable (slower turnover). To be noted: temperature: 30 C. The procedure:
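MPS profiling in S. cerevisiae of the yeast C-terminome library: the last 12 aa of each annotated ORF are fused to the C-terminus of a sfGFP-mCherry timer, after a GGGS linker. Cells are FACS-sorted into 8 mCherry/sfGFP bins and deep-sequenced. PSI runs from 0 (unstable) to 1 (stable); wild type and das1Δ backgrounds, two technical replicates each.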

Setting [1] is: genetic background: das1 deletion.

Sequence FDSEHFYSPVQT [PRP3 C-terminal 12 aa] showed a protein stability index under setting [1] of 0.7065 ± 0.0023 and a protein stability index (genetic background: wild type) of 0.71 ± 0.024.
The corresponding values for FDVELVDVKSAA [FPR2 C-terminal 12 aa] are 0.6795 ± 0.0018 and 0.687 ± 0.037.
Regarding FEVDVDSLFKLY [MET1 C-terminal 12 aa], the protein stability index amounted to 0.707 ± 0.018 under setting [1] and 0.442 ± 0.0068 (genetic background: wild type).
The corresponding values for “FFHRISHFLESA [YLR299C-A C-terminal 12 aa]” are 0.704 ± 0.018 and 0.695 ± 0.025.
The corresponding values for FGDCHLENSHLH [SPO75 C-terminal 12 aa] are 0.7041 ± 0.0012 and 0.719 ± 0.017.
In the case of FGICAIHWGIKV [COQ5 C-terminal 12 aa], the protein stability index was found to be 0.385 ± 0.02 under setting [1] and 0.411 ± 0.013 (genetic background: wild type).
Take FGLFKKKNKSKK [SVL3 C-terminal 12 aa]: the protein stability index is 0.727 ± 0.027 under setting [1] and 0.726 ± 0.073 (genetic background: wild type).
Regarding FGSSRSEWYLAL [YPL114W C-terminal 12 aa], the protein stability index is, setting by setting: under setting [1], 0.701 ± 0.029; (genetic background: wild type) 0.709 ± 0.031.
The corresponding values for FGWFDMNMEQGF [SEF1 C-terminal 12 aa] are 0.7562 ± 0.0074 and 0.757 ± 0.023.
As to “FHSMAHLSLHQY [YOR394C-A C-terminal 12 aa]”, the protein stability index came to 0.7202 ± 0.00097 under setting [1] and 0.478 ± 0.091 (genetic background: wild type).
The corresponding values for FIREFVLKNYSK [SNO2 C-terminal 12 aa] are 0.669 ± 0.0099 and 0.71 ± 0.068.
As for FIYKRNKKFILN [YPQ1 C-terminal 12 aa], the protein stability index under setting [1] came to 0.725 ± 0.014 and the protein stability index (genetic background: wild type) is 0.21 ± 0.019.
The matching figures for “FKCVHTPCNVYI [YER078W-A C-terminal 12 aa]”: 0.679 ± 0.0076 and 0.665 ± 0.037.
The corresponding values for FKVDDNVDFPSA [RPN2 C-terminal 12 aa] are 0.681 ± 0.016 and 0.744 ± 0.089.
The matching figures for FLLVLFFICIIL [YOL014W C-terminal 12 aa]: 0.366 ± 0.013 and 0.3063 ± 0.0029.
With FMGGFLSKGNKR [ROG3 C-terminal 12 aa], the protein stability index runs as follows: under setting [1], 0.706 ± 0.012; (genetic background: wild type) 0.683 ± 0.029.
FMGLGCVISEEL [TFB3 C-terminal 12 aa] registered a protein stability index under setting [1] of 0.693 ± 0.01 and a protein stability index (genetic background: wild type) of 0.685 ± 0.097.
Take FNISDYFSDIHE [ORC5 C-terminal 12 aa]: the protein stability index under setting [1] was 0.744 ± 0.02 and the protein stability index (genetic background: wild type) worked out at 0.7 ± 0.023.
For the sequence FPFELRREQTEG [PET130 C-terminal 12 aa], the protein stability index is, setting by setting: under setting [1], 0.6976 ± 0.0057; (genetic background: wild type) 0.755 ± 0.061.
The matching figures for “FPKLALVCTIFS [YGR146C-A C-terminal 12 aa]”: 0.369 ± 0.019 and 0.403 ± 0.009.
In the case of FQERIKNKNILK [CWC27 C-terminal 12 aa], the protein stability index is 0.739 ± 0.008 under setting [1] and 0.729 ± 0.0083 (genetic background: wild type).
Consider FRCKFKERKVDG [REP1 C-terminal 12 aa], for which the protein stability index was found to be 0.682 ± 0.0088 under setting [1] and 0.674 ± 0.015 (genetic background: wild type).
The corresponding values for FRSSAGLRSSKV [MIC10 C-terminal 12 aa] are 0.742 ± 0.016 and 0.706 ± 0.011.
As to FSGDMSFTVYQL [POA1 C-terminal 12 aa], the protein stability index is, setting by setting: under setting [1], 0.741 ± 0.01; (genetic background: wild type) 0.699 ± 0.041.
For the sequence FSIVALEVWRVG [OXR1 C-terminal 12 aa], the protein stability index reads like this: under setting [1], 0.552 ± 0.013; (genetic background: wild type) 0.567 ± 0.022.
Consider FSSEQGNPKEEK [FMP10 C-terminal 12 aa], for which the protein stability index is 0.702 ± 0.034 under setting [1] and 0.733 ± 0.03 (genetic background: wild type).
The corresponding values for FTIYEKVLVMLA [CTP1 C-terminal 12 aa] are 0.286 ± 0.017 and 0.20202 ± 3.5e-06.
The matching figures for FTRRGWSSFFKQ [PCL9 C-terminal 12 aa]: 0.684 ± 0.0086 and 0.6647 ± 0.0024.
The matching figures for FVDGIANSKKST [SRB7 C-terminal 12 aa]: 0.699 ± 0.01 and 0.682 ± 0.023.
In the case of FVFVNEFDVYTY [GPI12 C-terminal 12 aa], the protein stability index under setting [1] worked out at 0.716 ± 0.018 and the protein stability index (genetic background: wild type) is 0.704 ± 0.033.
The corresponding values for FWEKRWKDGWDE [ERV1 C-terminal 12 aa] are 0.756 ± 0.053 and 0.681 ± 0.031.
The matching figures for FYLHGNGSDNLF [YGR153W C-terminal 12 aa]: 0.7164 ± 0.0016 and 0.711 ± 0.031.
The corresponding values for GAALMALLGKWA [ZRT2 C-terminal 12 aa] are 0.725 ± 0.021 and 0.6381 ± 0.0041.
Take GARIGLQGYKSH [YNL184C C-terminal 12 aa]: the protein stability index reads like this: under setting [1], 0.70081 ± 0.00013; (genetic background: wild type) 0.688 ± 0.015.
As to GDKLISPLKKAF [TKL1 C-terminal 12 aa], the protein stability index came to 0.675 ± 0.013 under setting [1] and 0.711 ± 0.044 (genetic background: wild type).
GDYSFNGRVTDF [SDH8 C-terminal 12 aa]: the protein stability index came to 0.711 ± 0.015 under setting [1] and 0.697 ± 0.011 (genetic background: wild type).
The corresponding values for GEKKQKGQALQF [RPL42A C-terminal 12 aa] are 0.68 ± 0.025 and 0.662 ± 0.051.
Turning to GETSSSSAVAEV [AQY1 C-terminal 12 aa], the protein stability index is, setting by setting: under setting [1], 0.6874 ± 0.0045; (genetic background: wild type) 0.659 ± 0.03.
With GHNWLIFTRRRL [CBT1 C-terminal 12 aa], the protein stability index came to 0.718 ± 0.012 under setting [1] and 0.707 ± 0.0083 (genetic background: wild type).
As for GIMVSPMKTNQR [SWI5 C-terminal 12 aa], the protein stability index by setting is: under setting [1], 0.708 ± 0.025; (genetic background: wild type) 0.6993 ± 0.0062.
With GIVNFWSLEKAA [CIA1 C-terminal 12 aa], the protein stability index reads like this: under setting [1], 0.716 ± 0.012; (genetic background: wild type) 0.633 ± 0.011.
On to GIYSAVIDQTGF [RRP9 C-terminal 12 aa], for which the protein stability index was 0.705 ± 0.011 under setting [1] and 0.6868 ± 0.003 (genetic background: wild type).
The matching figures for GKFKSAVFEHAG [SRV2 C-terminal 12 aa]: 0.703 ± 0.026 and 0.71 ± 0.019.
The corresponding values for GKKGQHVGCCVC [YFL066C C-terminal 12 aa] are 0.722 ± 0.0084 and 0.691 ± 0.046.
The corresponding values for “GKLLVPLVLYQI [YDR182W-A C-terminal 12 aa]” are 0.673 ± 0.019 and 0.535 ± 0.0071.
Take GKLPSSLLSYFV [ZUO1 C-terminal 12 aa]: the protein stability index is, setting by setting: under setting [1], 0.7219 ± 0.0065; (genetic background: wild type) 0.673 ± 0.032.
Consider GKRNYLLSVTFV [YCR006C C-terminal 12 aa], for which the protein stability index is, setting by setting: under setting [1], 0.653 ± 0.012; (genetic background: wild type) 0.6385 ± 0.0019.
The matching figures for GKWYCDDCKKKL [PHO23 C-terminal 12 aa]: 0.729 ± 0.026 and 0.717 ± 0.048.
The corresponding values for GLSIDTRSAYFV [YPL251W C-terminal 12 aa] are 0.725 ± 0.019 and 0.68 ± 0.026.
The corresponding values for GLSPIRYFIPQH [YNL114C C-terminal 12 aa] are 0.659 ± 0.017 and 0.6812 ± 0.0052.
As for GNLRDTLIETYS [TIF6 C-terminal 12 aa], the protein stability index reads like this: under setting [1], 0.6559 ± 0.0033; (genetic background: wild type) 0.679 ± 0.0088.
Turning to GNNGNNNNTTNL [PET123 C-terminal 12 aa], the protein stability index came out at 0.672 ± 0.008 under setting [1] and 0.669 ± 0.0096 (genetic background: wild type).
Turning to GNSVNPYNGRIN [SGF73 C-terminal 12 aa], the protein stability index by setting is: under setting [1], 0.718 ± 0.019; (genetic background: wild type) 0.735 ± 0.0081.
Take GNTENGTLKKKH [BSC5 C-terminal 12 aa]: the protein stability index is, setting by setting: under setting [1], 0.685 ± 0.0072; (genetic background: wild type) 0.667 ± 0.037.
The matching figures for “GPCCMYIGCGCG [YBR056C-B C-terminal 12 aa]”: 0.6658 ± 0.0036 and 0.686 ± 0.032.
As to GPCVDALLSLSE [VPS9 C-terminal 12 aa], the protein stability index was determined as 0.74 ± 0.0083 under setting [1] and 0.716 ± 0.048 (genetic background: wild type).
The matching figures for GPEKAAELAFLA [YML079W C-terminal 12 aa]: 0.685 ± 0.024 and 0.6497 ± 0.0026.
GQVIDPLKAPFK [UTP14 C-terminal 12 aa]: the protein stability index is, setting by setting: under setting [1], 0.6757 ± 0.0012; (genetic background: wild type) 0.691 ± 0.043.
As to GRPEQAPECKQS [NAP1 C-terminal 12 aa], the protein stability index is 0.688 ± 0.0078 under setting [1] and 0.648 ± 0.011 (genetic background: wild type).
On to GSEHSDPFSTFY [DBF20 C-terminal 12 aa], for which the protein stability index by setting is: under setting [1], 0.748 ± 0.0093; (genetic background: wild type) 0.7245 ± 0.0011.
The corresponding values for GVAKSMGIKVVP [MRPL19 C-terminal 12 aa] are 0.652 ± 0.0064 and 0.686 ± 0.044.
Consider GVALAGALAFLI [HOR7 C-terminal 12 aa], for which the protein stability index by setting is: under setting [1], 0.68751 ± 0.00021; (genetic background: wild type) 0.66173 ± 0.00053.
The corresponding values for GVEKYWGILSSD [SCW10 C-terminal 12 aa] are 0.7123 ± 0.0033 and 0.716 ± 0.028.
The corresponding values for GYLIWSMGNRRR [YFL051C C-terminal 12 aa] are 0.731 ± 0.018 and 0.71 ± 0.016.
For the sequence HAAEQILKHFAA [THI4 C-terminal 12 aa], the protein stability index is, setting by setting: under setting [1], 0.697 ± 0.013; (genetic background: wild type) 0.708 ± 0.015.
On to HATTVIDGKIKV [YHI9 C-terminal 12 aa], for which the protein stability index amounted to 0.693 ± 0.0079 under setting [1] and 0.688 ± 0.039 (genetic background: wild type).
Take HDDKPWYKAMLE [GAL2 C-terminal 12 aa]: the protein stability index runs as follows: under setting [1], 0.7493 ± 0.0048; (genetic background: wild type) 0.733 ± 0.053.

For the origin of these results see the supplement of paper PMC10724198.
